Measurements published in patent publication US20240165226A1, “COMBINATION TREATMENT OF CD38-EXPRESSING TUMORS” (GENMAB A/S, priority 2006, published 2024).

Tests used:
wt human CD38 = biological target: T1, wt human CD38 (Homo sapiens, UniProt P28907); test: ELISA binding to wild type HA-CD38
T1 construct: The extracellular domain of human CD38 was amplified from plasmid pCIpuroCD38; signal peptide SPHMM (N); made in house; host or cells: Freestyle 293-F (HEK-293F), transient; culture supernatant used
Experimental: Freestyle™ 293-F (a HEK-293 subclone adapted to suspension growth and chemically defined Freestyle medium, (HEK-293F)) cells were obtained from Invitrogen and transfected with pEE13.4HACD38 and with the three constructs carrying the mutations T237A, Q272R and S274F, according to the manufacturer's protocol using 293fectin (Invitrogen). Culture supernatants of transfected cells were used in ELISA for anti-CD38 binding studies.
Culture supernatants of transfected HEK293F cells were diluted, applied to the ELISA plates and incubated for 1 hr at RT. After washing, serial dilutions of HuMabs -003 and -005 were added and incubated for 1 hr at RT. Bound antibodies were detected with HRP-conjugated goat-anti-human IgG antibodies. The assay was developed with ABTS (Roche, #1112597) and the absorbance was measured at 405 nm using a spectrophotometer.

[1] = test system: EBV transformed chimpanzee B cells; test: Binding to EBV transformed chimpanzee B cells by flow cytometry; conditions: FITC-labeled antibody
Experimental: After harvesting and counting, EBV transformed chimpanzee B cells (received from Biomedical Primate Research Centre, Department Immunobiology, Rijswijk, The Netherlands) were resuspended (1×10^6 cells/ml) in PBS-BSA (PBS supplemented with 0.1% BSA and 0.02% Na-azide). Then, cells were put in 96-well V-bottom plates (100 μl/well) and washed twice in PBS-BSA. Thereafter, 50 μl FITC-labeled -005 antibody solution in PBS-BSA was added to the cells (4° C., 30 min). Cells were washed three times and specific binding of -005 to EBV transformed chimpanzee B cells was detected by flow cytometry. FITC labeled HuMab-KLH (a human monoclonal antibody against KLH (keyhole limpet haemocyanin) generated by Genmab B.V., Utrecht, The Netherlands by use of the immunization protocols described elsewhere herein) was used as a control.

[2] = biological target: T2, CHO cells transfected with human CD38 (CHO-CD38 cells) (Homo sapiens, UniProt P28907); test: Enzymatic activity of cellular expressed CD38 (cGDPR production); format: cell-based; conditions: after 156 minutes; for cGDPribose production: CHO-CD38 cells
T2 construct: expressed in transfected cells; host or cells: CHO cells
Experimental: The enzymatic activity of cellular expressed human CD38 was measured in an assay essentially as described in Graeff et al., J. Biol. Chem. 269, 30260-30267 (1994). Briefly, substrate NGD (80 μM) was incubated with […] CHO cells transfected with human CD38 (CHO-CD38 cells) in a buffer containing 20 mM Tris-HCl, pH 7.0 supplemented with 30 μg/ml IgG1. The production of cGDPR can be monitored spectrophotometrically at the emission wavelength of 410 nm (excitation at 300 nm). In this example an excitation filter of 340±60 nm and an emission filter of 430±8 nm was used. To test the effect of -005 and -003 on the enzymatic activity of cellular expressed CD38, CHO-CD38 cells were pre-incubated for 15′ at room temp. with various concentrations (30, 3, 0.3 and 0.03 μg/ml) of the different antibodies before adding the substrate NGD. The production of cGDPR was recorded at different time points after addition of substrate NGD (3, 6, 9, 12, 30, 45, 60, 112 and 156 min).

[3] = test system: plasma cells in implanted synovial tissue; test: RA-SCID mouse model, synovial tissue xenografts; format: in vivo, SCID-mice; conditions: 12 mg/kg i.v. day 8, day 14
From the text: SCID-mice, strain C.B.-17/lcrCrl-SCID-bg, male/female, 4-12 weeks, purchased from Charles River Laboratories Nederland (Maastricht, the Netherlands) were kept in IVC cages under standard conditions of temperature and light, and were fed laboratory chow and water ad libitum. Prior to implantation, mice (three mice in each experimental group, day 0) were anesthetized by intraperitoneal injection of ketamine (NIMATEK, EuroVet) and xylazine (Rompun, Bayer) at ratio 1:1. A small incision of the skin was made using surgical scissors. […] On day 1 of the experiment, remaining synovial tissue was analyzed in order to check for B cells in the inflamed synovial transplants. -005 (12 mg/kg) or control antibody (anti-KLH, 30 mg/kg) was injected (i.v.), in a volume of 200 μl on day 8 of the experiment. […]
Scoring of stained synovial tissue xenografts was performed in a blinded fashion by two trained persons. […] The staining intensity in the other sections was then scored on a scale of 0 to 8, relative to the reference section.
Scoring of staining intensity was analyzed by Kruskal-Wallis one-way ANOVA followed by Dunn's multiple comparison test using Graph Pad Prism version 4.01 (Graph Pad software, Inc., San Diego, CA, USA).

Substance: -005: human monoclonal IgG1 anti-CD38 antibody, VL region SEQ ID No:12 and VH region SEQ ID No:17
- binding to wt human CD38 (wt human CD38): bind
- binding to EBV transformed chimpanzee B cells [1]: dose dependent binding
- cGDPribose production ([2]; 0.03 μg/ml antibody): 104 % of NGD control
- cGDPribose production ([2]; 0.3 μg/ml antibody): 100 % of NGD control
- cGDPribose production ([2]; 3 μg/ml antibody): 82 % of NGD control
- reduced production of cGDPR ([2]; 3 μg/ml): 18%
- cGDPribose production ([2]; 30 μg/ml antibody): 79 % of NGD control
- reduced production of cGDPR ([2]; 30 μg/ml): 21%
- numbers of anti-CD38-positive plasma cells in xenografts [3]: reduced
- numbers of plasma cells (anti-CD138 staining) in xenografts [3]: reduced numbers of plasma cells
